{"source": "paper PMC2315677", "key": {"[1]": {"target": "calreticulin (hamster (endogenous in CHO)) (UniProt Q8K3H7)", "sequence (Q8K3H7 18-417)": "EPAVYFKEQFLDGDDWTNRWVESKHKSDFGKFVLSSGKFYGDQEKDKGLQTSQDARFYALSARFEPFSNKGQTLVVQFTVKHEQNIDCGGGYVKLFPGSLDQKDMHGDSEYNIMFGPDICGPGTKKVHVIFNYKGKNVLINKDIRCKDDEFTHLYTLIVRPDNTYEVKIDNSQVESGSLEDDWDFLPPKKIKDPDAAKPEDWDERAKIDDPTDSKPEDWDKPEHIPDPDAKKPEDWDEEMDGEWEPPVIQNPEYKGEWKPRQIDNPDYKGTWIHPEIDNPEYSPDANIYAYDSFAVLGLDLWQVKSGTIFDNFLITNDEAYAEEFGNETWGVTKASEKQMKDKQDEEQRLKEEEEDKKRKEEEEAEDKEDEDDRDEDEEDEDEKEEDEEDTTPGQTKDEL", "test": "co-IP"}, "[2]": {"target": "calreticulin (hamster (endogenous in CHO)) (UniProt Q8K3H7)", "test": "co-IP", "remark": "listed apart in the source"}}, "note": "Where two headings read alike, the source gives them in different places.", "data": [{"substance": "influenza hemagglutinin (HA) wild type, transiently expressed in MI8-5 CHO cells (from UniProt P03437 17-566) (natural protein)", "values": [{"measurement": "percent bound", "setting": "[1]", "value": 70, "unit": "%"}, {"measurement": "percent bound", "setting": "[2]", "value": 16, "unit": "%"}]}]}
